Data: PMC3159028 (Journal of molecular biology, 2011)
Like-named read-outs stand apart in the source and are kept apart here.

B1: mouse NudC-like 2 protein (NudCL2), full length (natural protein, UniProt Q9CQ48 1-157, looked up)
chain: MSAPFEERSGVVPCGTPWGQWYQTLEEVFIEVQVPPGTRAQDIQCGLQSRHVALAVGGREILKGKLFDSTIADEGTWTLEDRKMVRIVLTKTKRDAANCWTSLLESEYAADPWVQDQMQRKLTLERFQKENPGFDFSGAEISGNYTKGGPDFSNLEK
B2: human NudC, full length (NudC^1–331) (natural protein)
chain: not shown
B3: hNudC^1–141, N-terminal fragment of human NudC (dimerization domain) (domain or fragment)
chain: not shown
B4: human NudC-like protein (NudCL), full length (natural protein, UniProt Q8IVD9 1-361, looked up)
chain: METGAAELYDQALLGILQHVGNVQDFLRVLFGFLYRKTDFYRLLRHPSDRMGFPPGAAQALVLQVFKTFDHMARQDDEKRRQELEEKIRRKEEEEAKTVSAAAAEKEPVPVPVQEIEIDSTTELDGHQEVEKVQPPGPVKEMAHGSQEAEAPGAVAGAAEVPREPPILPRIQEQFQKNPDSYNGAVRENYTWSQDYTDLEVRVPVPKHVVKGKQVSVALSSSSIRVAMLEENGERVLMEGKLTHKINTESSLWSLEPGKCVLVNLSKVGEYWWNAILEGEEPIDIDKINKERSMATVDEEEQAVLDRLTFDYHQKLQGKPQSHELKVHEMLKKGWDAEGSPFRGQRFDPAMFNISPGAVQF

Legend:
SEC [1] = target: the molecule itself; assay: SEC
SEC [2] = target: the molecule itself; assay: SEC; remark: listed apart in the source

Protein	stoichiometry N (SEC [1])	stoichiometry N (SEC [2])
B1	2	
B2	2	
B3		2
B4	2	
